The target in data set [1] is T1, Cascade (Type I-E crRNA-guided surveillance complex, crRNA-loaded) (Escherichia coli K12 (expressed in …, UniProt Q46901;P76632;Q46899;Q46898;Q46897 1-502;1-160;2-363;1-224;2-199)).
T1 sequence 1: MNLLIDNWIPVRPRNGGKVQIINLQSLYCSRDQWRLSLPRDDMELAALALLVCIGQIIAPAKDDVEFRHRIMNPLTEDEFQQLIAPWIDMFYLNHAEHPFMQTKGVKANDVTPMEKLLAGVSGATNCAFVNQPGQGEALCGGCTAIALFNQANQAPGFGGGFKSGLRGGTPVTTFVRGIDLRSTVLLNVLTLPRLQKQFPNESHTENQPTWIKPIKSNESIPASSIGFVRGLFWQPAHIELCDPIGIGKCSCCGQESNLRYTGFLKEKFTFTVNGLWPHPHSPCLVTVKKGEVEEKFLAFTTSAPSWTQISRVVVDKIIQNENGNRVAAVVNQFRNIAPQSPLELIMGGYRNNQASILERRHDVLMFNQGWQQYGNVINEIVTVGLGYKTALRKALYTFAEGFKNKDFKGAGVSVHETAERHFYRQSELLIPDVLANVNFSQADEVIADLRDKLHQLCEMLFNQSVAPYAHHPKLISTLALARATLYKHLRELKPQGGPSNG
T1 sequence 2: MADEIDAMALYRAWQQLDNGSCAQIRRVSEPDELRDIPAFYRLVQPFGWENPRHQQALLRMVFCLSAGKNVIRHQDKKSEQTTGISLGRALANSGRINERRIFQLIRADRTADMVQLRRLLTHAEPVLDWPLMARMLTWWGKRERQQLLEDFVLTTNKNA
T1 sequence 3: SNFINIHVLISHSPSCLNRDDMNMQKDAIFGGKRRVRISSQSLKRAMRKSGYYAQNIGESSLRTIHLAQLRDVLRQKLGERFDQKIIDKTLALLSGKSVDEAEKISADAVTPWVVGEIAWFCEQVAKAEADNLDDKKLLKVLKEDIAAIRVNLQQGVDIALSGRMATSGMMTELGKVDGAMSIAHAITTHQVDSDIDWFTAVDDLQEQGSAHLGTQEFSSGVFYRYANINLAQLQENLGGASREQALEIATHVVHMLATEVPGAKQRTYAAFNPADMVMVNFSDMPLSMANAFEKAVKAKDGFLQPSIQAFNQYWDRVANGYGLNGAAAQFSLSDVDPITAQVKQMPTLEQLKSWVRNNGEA
T1 sequence 4: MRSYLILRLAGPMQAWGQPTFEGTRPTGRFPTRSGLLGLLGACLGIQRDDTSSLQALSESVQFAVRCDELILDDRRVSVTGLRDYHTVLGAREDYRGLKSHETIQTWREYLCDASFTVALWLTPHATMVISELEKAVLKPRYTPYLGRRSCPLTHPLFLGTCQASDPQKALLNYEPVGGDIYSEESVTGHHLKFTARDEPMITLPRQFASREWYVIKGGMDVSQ
T1 sequence 5: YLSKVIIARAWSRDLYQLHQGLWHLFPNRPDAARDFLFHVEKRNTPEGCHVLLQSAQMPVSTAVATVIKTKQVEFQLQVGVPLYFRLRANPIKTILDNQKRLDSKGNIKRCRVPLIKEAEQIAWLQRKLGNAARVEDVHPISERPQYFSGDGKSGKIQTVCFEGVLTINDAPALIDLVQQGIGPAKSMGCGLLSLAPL
In words: EMSA; g8C-2A crRNA; slightly reduced affinity; EMSA with 32P-labelled dsDNA; buffer, salt, pH and temperature not stated (as in ref 29); Kd from fraction bound = [Cascade]/(Kd+[Cascade]). To be noted: protein: recombinant; copies: 1;2;6;1;1; label: 5'-32P on DNA; guide / target / displaced; DNA blunt duplex. On the technique in general: Mobility shift assays separate free from complexed probe on a gel.

Data set [2] concerns the target T1, Cascade (Type I-E crRNA-guided …). In words: EMSA; WT crRNA; EMSA with 32P-labelled dsDNA; buffer, salt, pH and temperature not stated (as in ref 29); Kd from fraction bound = [Cascade]/(Kd+[Cascade]). Particulars: protein: recombinant, copies: 1;2;6;1;1, label: 5'-32P on DNA, DNA blunt duplex.
For data set [3] the target is unchanged. In words: EMSA; g8G-1T crRNA; EMSA with 32P-labelled dsDNA; buffer, salt, pH and temperature not stated (as in ref 29); Kd from fraction bound = [Cascade]/(Kd+[Cascade]). Particulars: protein: recombinant; copies: 1;2;6;1;1; label: 5'-32P on DNA; guide / target / displaced; DNA blunt duplex.

Positions count from the first letter of the chain named.

B1: g8C-2A crRNA + CTT PAM probe (mixed)
RNA: AUAAACAGCUGUCUUUCGCUGCUGAGGGUGACGAUCCCGCGAGUUCCCCGCGCCAGCGGGG
DNA 1: TTAAAGGCCGCTTTTGCGGGATCGTCACCCTCAGCAGCGAAAGACAGCTTCGGAACGAGGGTAGC
DNA 2: GCTACCCTCGTTCCGAAGCTGTCTTTCGCTGCTGAGGGTGACGATCCCGCAAAAGCGGCCTTTAA
Take B1: the Kd in data set [1] stood at 60 ± 12 nM.

B2: WT g8 crRNA + CCT PAM (AGG) M13 probe (mixed)
RNA: B1 RNA with A7C
DNA 1: B1 DNA 1 with T49C
DNA 2: B1 DNA 2 with A17G
Turning to B2, the binding result in data set [2] (guide / target / displaced) is “binds”.

B3: g8G-1T crRNA + CTT PAM probe (mixed)
RNA: B1 RNA with A7C, G8U
DNA 1: B1 DNA 1
DNA 2: B1 DNA 2
Turning to B3, the binding result in data set [3] is listed as “binds”.

B4: g8G-1T crRNA + CCT PAM probe (mixed)
RNA: B1 RNA with A7C, G8U
DNA 1: B1 DNA 1 with T49C
DNA 2: B1 DNA 2 with A17G
B4: the binding result in data set [3] was “binds”.

B5: g8G-1T crRNA + CTC PAM probe (mixed)
RNA: B1 RNA with A7C, G8U
DNA 1: B1 DNA 1 with T50C
DNA 2: B1 DNA 2 with A16G
As to B5, in data set [3], the binding result is “binds”.

B6: WT g8 crRNA + CTT PAM (AAG) M13 probe (mixed)
RNA: B1 RNA with A7C
DNA 1: B1 DNA 1
DNA 2: B1 DNA 2
For the molecule B6, the binding result in data set [2] (guide / target / displaced) is “binds”.

B7: WT g8 crRNA + CTC PAM (GAG) M13 probe (mixed)
RNA: B1 RNA with A7C
DNA 1: B1 DNA 1 with T50C
DNA 2: B1 DNA 2 with A16G
Take B7: the binding result in data set [2] (guide / target / displaced) was “binds”.

B8: WT g8 crRNA + CAT PAM (ATG) M13 probe (mixed)
RNA: B1 RNA with A7C
DNA 1: B1 DNA 1 with T49A
DNA 2: B1 DNA 2 with A17T
As for B8, the binding result in data set [2] (guide RNA / target strand / displaced strand) is “binds”.

B9: g8G-1T crRNA + CAT PAM probe (mixed)
RNA: B1 RNA with A7C, G8U
DNA 1: B1 DNA 1 with T49A
DNA 2: B1 DNA 2 with A17T
Regarding B9, the binding result in data set [3] is “binds”.

For orientation: Kd means the concentration at which binding is half-saturated.

The values above are taken from PMC3764190, “Type I-E CRISPR-Cas Systems Discriminate Target from Non-Target DNA through Base Pairing-Independent PAM Recognition”.
